Assay results published in the Human Domainome abundance scans (Beltran et al. 2025).

B1: Homeobox protein cut-like 1, residues 548 to 629; numbered along this chain, P39880 (parent)
chain: GEEMDTAEIARQVKEQLIKHNIGQRIFGHYVLGLSQGSVSEILARPKPWNKLTVRGKEPFHKMKQFLSDEQNILALRSIQGR

Variants of: B1
Test: abundance fitness (aPCA) (normalised: wild type 0, dead -1); higher = more abundant; growth selection in yeast, the domain comes from the species named
Details: Homo sapiens

Abundance fitness: each site, then its substitutions
I42: P -0.819, M 0.004, R -1, W -0.513, Q -0.564, C -0.253, D -0.723, V -0.104, L -0.013, K -0.747, T -0.375, F -0.242, N -0.633, A -0.36, E -0.707, Y -0.351
W49: T -0.509, R -0.574, V -0.529, E -0.273, S -0.477, L -0.506, A -0.202
P46: K -0.938, N -0.685, H -0.746, Q -0.482, D -0.854, S -0.652, I -0.26, W -0.356, R -0.925, A -0.346, F -0.725, M -0.459, E -0.779, L -0.356, V -0.37, Y -0.594, G -0.77
R55: D 0.027, V -0.06, Y -0.096, L -0.04, H 0.077, W -0.095, F -0.041, I -0.148, C -0.051, N -0.142, T 0.007, E 0.135, A 0.075, K 0.066, P -0.159, G -0.011, M -0.028, Q 0.067, S 0.004
K51: S 0.006, L 0.011, T 0.011, E 0.063, R -0.047, Q 0.122, M -0.011, W -0.338, H -0.075, N 0.012, G -0.198, F -0.098, D 0.054, P -0.912, I -0.008, V 0.053, Y -0.195
G56: L -0.098, P -0.697, F -0.224, M -0.143, D 0.036, I -0.282, R -0.711, E 0.085, N -0.22, S -0.254, H -0.352, K -0.595, Q 0.077, C -0.279
A44: Y -0.099, C -0.134, N 0.073, S 0.034, L -0.027, K -0.094, E 0.08, D 0.056, F -0.082, Q 0.053, T 0.057, W -0.176, M 0.047, P -0.709, R -0.106, I -0.159, G -0.038, V -0.137
V54: T 0.03, N 0.08, E 0.136, R -0.028, I -0.001, A 0.066, C -0.063, F -0.094, Q 0.064, P 0.036, M 0.119, S -0.033, L 0.028, G -0.04, K 0.058, Y -0.033, W -0.173, D 0.052
G37: L -0.022, R 0.029, M 0.002, N -0.016, Q 0.092, W -0.057, S 0.024, P -0.084, K 0.091, V -0.051, Y -0.034, T 0.063
E41: H -0.353, W -0.522, G -0.293, Y -0.412, N -0.206, A -0.13, M -0.377, Q -0.204, C -0.219, T -0.243, L -0.345, V -0.433, S -0.265, K -0.727, D -0.061, F -0.758, R -0.851, I -0.477
K47: A -0.116, S -0.126, L 0.028, W -0.329, D -0.08, R -0.072, E -0.037, H -0.276, I -0.086, G -0.288, Y -0.432, M -0.06, V -0.015, Q 0.03, F -0.338, T -0.019, N -0.339
S38: G -0.049, E 0.141, D 0.125, I -0.008, H -0.031, V 0.097, Y -0.112, W -0.273, T -0.005, Q 0.113, P -0.079, N -0.027, L -0.005, K 0.061, R -0.711, A 0.072, F -0.181, M 0.11, C 0.025
R45: Q -0.021, L -0.274, V -0.228, M -0.049, W -0.201, K -0.006, N -0.002, F 0.008, C -0.001, T -0.003, D -0.033, Y -0.085, H 0.103, S 0.041, P -0.797, I -0.361, E -0.009, A 0.03, G -0.296
V39: H -0.844, T 0.086, Q -0.676, Y -0.574, M -0.249, C -0.025, R -0.915, D -0.732, A -0.177, W -0.33, I -0.212, G -0.725, K -0.898, N -0.697, S -0.316, E -0.456, P -0.642, L -0.101, F -0.165
S40: I -0.117, T 0.055, N -0.018, C -0.063, H 0.123, A 0.057, D 0.078, F -0.162, W -0.131, E 0.13, P -0.258, Y -0.102, G -0.06, M -0.051, K 0.032, L -0.101, Q 0.017
T53: K -0.686, F -0.55, P -0.254, A -0.341, Y -0.821, E -0.251, V -0.671, H -0.432, G -0.032, Q -0.369, N -0.077, S 0.049, R -0.767, D 0.116, W -0.566, I -0.521, M -0.45
P48: G -0.539, K -0.452, Y -0.78, H -0.16, E -0.126, R -0.475, S -0.168, N -0.446, A -0.119, I -0.438, C -0.268, Q -0.247, M -0.27, D -0.267, V -0.374, F -0.513, W -0.325
N50: Q -0.057, W -0.151, V -0.309, T -0.16, H -0.074, L -0.424, S 0.073, C 0.064, A -0.062, Y -0.165, K -0.093, F -0.265, M -0.23, E -0.071, P -0.003, D -0.103, G -0.129, R -0.04
L43: C -0.843, T -0.922, D -0.68, H -1.04, M -0.235, R -1, P -0.926, V -0.769, S -0.865, G -0.929, Y -0.699, I -0.534, K -1.03, F -0.146, N -1, W -0.743, Q -0.807, E -0.89, A -0.772
L52: Y -0.602, P -0.97, A -1.04, F -0.915, V -0.879, D -1.17, S -0.97, R -1.1, C -0.484, N -1.1, H -1.02, Q -0.825, I -0.538, E -1.02, T -0.99, K -1.13
